Values joined by “and” are separate entries in the source; they are usually repeats but may differ in a detail not shown here. Equal values may be shown once.
B1: twister_theo_3: Theophylline aptamer linked by 3 bp stem to loop 2 of twister ribozyme, in pLuc (nucleic acid)
DNA: TCAGAGAGATCCTCATAAAGGCCAAGAAGGGCGGAAAGATCGCCGTGTAAACGCCTTGTAATGCGGCGCGATACCAGCCGAAAGGCCCTTGGCAGCGTTCGGTCTCAAGCCCGATAAACGCAGAGAGCAAGGCGGCCGCCATACCACATTTGTAGAGGTTTTACTTGCTTTAAAAAACCTCCCACACCTCCCCCTGAACCTGAAACATAAAATGAATGC
modifications: misc_feature 1..219 twister_theo_3 in pLuc
notes: Theophylline aptamer linked by 3 bp stem to loop 2 of twister ribozyme, in pLuc
B2: Luci-waspGua16: Luciferase construct with 3 bp of stem connecting the guanine aptamer directly to twister loop 2; OFF riboswitch in 3′ UTR (nucleic acid)
DNA: TCAGAGAGATCCTCATAAAGGCCAAGAAGGGCGGAAAGATCGCCGTGTAAACGCCTTGTAATGCGGCATATAATCGCGTGGATATGGCACGCAAGTTTCTACCGGGCACCGTAAATGTCCGACTATTCGGTCTCAAGCCCGATAAACGCAGAGAGCAAGGCGGCCGCCATACCACATTTGTAGAGGTTTTACTTGCTTTAAAAAACCTCCCACACCTCCCCCTGAACCTGAAACATAAAATGAATGC
modifications: misc_feature 1..247 waspGua16 in pLuc
notes: Luciferase construct with 3 bp of stem connecting the guanine aptamer directly to twister loop 2; OFF riboswitch in 3′ UTR

Tests used:
Assay type in all cases: cell-based
[1] = system: firefly luciferase expression in HEK 293 cells; test: Firefly luciferase assay of transfected HEK 293 cells treated with or without theophylline
Protocol: (§1) Firefly luciferase assay of cultured cells: 24 hours after media change, plates were removed from the incubator, equilibrated to RT for several minutes on a lab bench, and then aspirated. Glo-lysis buffer (Promega, 100 μL, RT) was added, and the plates allowed to remain at RT for at least 5 minutes. The well contents were mixed by 50 μL trituration, and 20 μL of each sample was mixed with 20 μL of bright-glo reagent (Promega) that had been diluted to 10% in glo-lysis buffer. 96 wells were spaced on an opaque white 384-well plate. Following a 5-minute incubation at RT, luminescence was measured using a Tecan machine with 500 mSec read time. The luciferase activity was expressed as mean relative light unit (RLU)±S.D.
Oligos containing the twister ribozyme sequence linked with theophylline aptamer were synthesized (IDT), and cloned into pLuc vector using Gibson cloning strategy and kit (NEB). Construct sequences were verified by DNA sequencing (Genewiz).
Transfection and firefly luciferase assay: HEK 293 cells were transfected as described in Example 1. Four hours after transfection, the media was aspirated, and new media with or without 2 mM theophylline (Sigma) was added. […] The reduction fold was expressed as the quotient of luciferase activity obtained in the absence of aptamer ligand divided by the value obtained in the presence of the aptamer ligand.

[2] = system: mouse erythropoietin (Epo) gene expression in HEK 293 cells; test: ELISA assay for measuring mouse Epo in culture media of transfected HEK 293 cells; conditions: riboswitch in 3′ UTR of mouse Epo gene; ligand-treated vs solvent-treated control cells; supernatant 18 hours after treatment
Protocol: FIG. 3e. HEK 293 cells were transfected with the indicated constructs, and treated with 500 μM guanosine. DMSO was used as solvent control. Supernatant was collected 18 hours after guanosine treatment, the Epo was measured using ELISA kit. The results were expressed as mean±SD (n=2). Shown is the representative of two independent experiments.
ELISA assay for measuring mouse Epo in culture media: Supernatant was collected 18 hours after drug treatment, and an ELISA was performed using ELISA kit (R&D) according to manufacturer's instructions. The data was analyzed using 4-parameter curve fitting.

[3] = system: firefly luciferase expression in HEK 293 cells; test: Firefly luciferase assay of transfected HEK 293 cells treated with or without guanine or guanosine; conditions: riboswitch in 3′ UTR
Protocol: as §1, with “(RLU)±S.D. […]” for “(RLU)±S.D.”
Transfection and aptamer ligand treatment: HEK 293 cells were transfected as described in Example 1. Four hours after transfection, the media was aspirated, and new media with or without 500 μM guanine or 1 mM guanosine (Sigma) was added. Luciferase assay was performed 20 to 24 hours after guanine or guanosine treatment as described in Example 2. The reduction fold was expressed as the quotient of luciferase activity obtained in the absence of aptamer ligand divided by the value obtained in the presence of the aptamer ligand.
Oligos containing either a start codon or coding sequence for the first 10 amino acids of GFP and waspGua16 followed by a linker2A sequence were synthesized (IDT) and cloned into the pLuc vector using the Gibson cloning strategy and cloning kit (NEB). Transfection and luciferase assay of cultured cells were performed as described in Example 3. […]

Molecule	reduction in gene expression (luciferase activity) upon theophylline treatment ([1]; 2 mM theophylline vs no theophylline)	luciferase activity in the absence of aptamer ligand (in words) ([1]; no theophylline)	reduction of Epo production [2]	fold reduction in luciferase activity upon guanine treatment ([3]; 500 μM guanine vs no guanine)	reduction in luciferase activity upon guanine treatment ([3]; 500 μM guanine vs no guanine)	reduction in luciferase activity upon guanine treatment (in words) ([3]; 500 μM guanine)	fold reduction in luciferase expression upon guanosine treatment ([3]; guanosine at 1 mM as aptamer ligand)
B1	62%	the most robust luciferase activity	–	–	–	–	–
B2	–	–	approximately 30%	15 fold and 12 fold	92%	reduced luciferase activity	25 fold

Source: US12359199B2, “Regulation of gene expression via aptamer-mediated control of self-cleaving ribozymes” (MEIRAGTX UK II LIMITED, priority 2016, dated 2025)
